In publication PMC6698656, “Structural insights into dimethylation of 12S rRNA by TFB1M: indispensable role in translation of mitochondrial genes and mitochondrial function”:

Target: hsTFB1M (Homo sapiens, UniProt Q8WVM0 28-346)
Assay: X-ray crystallography; no SAM (binary complex), 3.0 A; EMSA: 50 mM Tris-HCl pH 8.0, 25 mM NaCl, 100 nM RNA, TFB1M 0-2 mM as printed (legend suggests uM), 37 C 30 min; 6% native PAGE, 0.5x TBE
Settings: protein: recombinant; tags: His6-MBP N-terminal, removed by TEV; hairpin

Chain of hsTFB1M (Q8WVM0 28-346): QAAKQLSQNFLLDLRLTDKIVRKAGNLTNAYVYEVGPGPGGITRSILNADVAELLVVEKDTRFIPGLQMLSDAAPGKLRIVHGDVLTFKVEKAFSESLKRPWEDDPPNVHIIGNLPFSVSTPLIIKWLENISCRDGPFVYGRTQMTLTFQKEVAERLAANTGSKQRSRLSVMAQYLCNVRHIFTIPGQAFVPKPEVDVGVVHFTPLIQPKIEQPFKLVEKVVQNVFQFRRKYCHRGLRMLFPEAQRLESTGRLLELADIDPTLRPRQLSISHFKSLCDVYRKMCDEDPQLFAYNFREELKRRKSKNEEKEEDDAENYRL

GGUAAGUGUACUGGAAAGUGCACUUGCC (structured_RNA) [h45 RNA (crystal)]
binding result: binds
